In the supplement of paper PMC10126150:
± gives the standard deviation of the averaged measurements.

system: ATP; assay: switch fluorescence ratio, 500 uM ATP over buffer (Cy3 cluster intensity, sum of 5 cycles each) (fold (ratio)); higher = stronger signal-on switching upon ATP binding; sequences stand for … in TCGTCGGCAGCGTCAGATGTGTATAAGAGACAGTTTTTTTTTTTTTTTTTTTTTTTTT…TC; conditions: aptamer strand: ATP DNA aptamer (quencher-CACCTGGGGGAGTATTGCGGAGGAAGG + anchor), 100 nM annealed; ATP concentration: 500 uM
Method in brief: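 Clusters carrying Cy3-labelled switching strands on a modified Illumina MiSeq flow-cell were annealed to 100 nM quencher-labelled ATP aptamer and imaged in selection buffer. They were imaged again after 15 min with 500 uM ATP at 22 °C, over five buffer/ATP cycles with NaOH stripping and re-annealing in between. For each cluster, the fluorescence ratio is the summed Cy3 intensity of the target cycles divided by that of the buffer cycles, averaged per switch-domain sequence. Clusters outside 100-1000 RFU were left out.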
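Also: ATP exposure 15 min at 22 °C before imaging.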

Sequence | switch fluorescence ratio
CTGCTTCGAA | 1.06 ± 0.023
CTGGAAATGG | 1.033 ± 0.0095
CTGGACAGTG | 0.956 ± 0.013
CTGGAGGACT | 1.026 ± 0.0098
CTGGATTGAG | 0.956 ± 0.027
CTGGCCAAGT | 0.999 ± 0.02
CTGGCGGAAA | 1.05 ± 0.093
CTGGCGTTCG | 0.983 ± 0.033
CTGGGAAGGG | 0.9281 ± 0.0061
CTGGGAAGTG | 0.978 ± 0.003
CTGGGATGGG | 1.06 ± 0.13
CTGGGGCGTG | 1.02 ± 0.014
CTGGGGGATG | 0.9863 ± 0.0027
CTGGGGGCGC | 0.996 ± 0.03
CTGGGGGGCT | 1.02 ± 0.021
CTGGGGGGTG | 1.02 ± 0.024
CTGGGGGTAT | 1 ± 0.03
CTGGGGGTTA | 0.999 ± 0.059
CTGGGGTAAT | 1.028 ± 0.0095
CTGGGGTGGC | 1.03 ± 0.046
CTGGGGTTGG | 0.968 ± 0.012
CTGGGTAATA | 1.08 ± 0.047
CTGGGTATTG | 0.971 ± 0.012
CTGGGTCTTT | 0.99 ± 0.015
CTGGGTTGTA | 1 ± 0.012
CTGGTAAGGT | 0.9947 ± 0.0074

Sequence | switch fluorescence ratio
CTGGTAGGGT | 1.02 ± 0.02
CTGGTATAGT | 1.03 ± 0.03
CTGGTATGTG | 0.997 ± 0.029
CTGGTCATGT | 0.995 ± 0.05
CTGGTCGAAT | 1 ± 0.017
CTGGTCGCT | 0.976 ± 0.017
CTGGTGGTGG | 0.986 ± 0.075
CTGGTTAAGG | 0.957 ± 0.017
CTGGTTATTT | 1.04 ± 0.076
CTGGTTGGAG | 0.995 ± 0.022
CTGGTTTCGA | 1.017 ± 0.0082
CTGGTTTTCA | 0.988 ± 0.024
CTGGTTTTGC | 0.998 ± 0.022
CTGTAACGAG | 1.008 ± 0.0075
CTGTAAGGAA | 0.989 ± 0.026
CTGTAATGTT | 0.992 ± 0.011
CTGTAGAGAG | 1.01 ± 0.063
CTGTAGGCCC | 1.05 ± 0.097
CTGTAGGGGG | 1.07 ± 0.13
CTGTAGGTGT | 1.06 ± 0.029
CTGTAGTCTG | 1.11 ± 0.019
CTGTATTAGT | 1.02 ± 0.027
CTGTATTCGC | 1.172 ± 0.0037
CTGTCAGACT | 1.03 ± 0.058
CTGTCTGGGG | 0.9737 ± 0.0033
CTGTCTGGGT | 0.993 ± 0.029

Sequence | switch fluorescence ratio
CTGTGACAAT | 1.04 ± 0.029
CTGTGAGGCT | 1 ± 0.042
CTGTGCAAGT | 1.47 ± 0.073
CTGTGCGCCC | 1.09 ± 0.058
CTGTGGTGGG | 0.996 ± 0.051
CTGTGTTGTG | 0.998 ± 0.015
CTGTTAATTG | 1.016 ± 0.0081
CTGTTACGCA | 1.201 ± 0.0046
CTGTTCATGG | 1.02 ± 0.019
CTGTTCATTG | 0.9807 ± 0.0037
CTGTTCTTTG | 0.982 ± 0.019
CTGTTGACTG | 0.983 ± 0.041
CTGTTTAAGG | 0.986 ± 0.013
CTGTTTAGTC | 1.01 ± 0.015
CTGTTTCACA | 0.949 ± 0.046
CTGTTTGGGG | 1.004 ± 0.0028
CTGTTTTGGG | 1.03 ± 0.032
CTGTTTTTTG | 0.976 ± 0.03
CTTAAAGTGC | 1.05 ± 0.069
CTTAAAGTTA | 1.01 ± 0.018
CTTAAATTGT | 1.01 ± 0.011
CTTAAATTTA | 1.02 ± 0.022
CTTAACAGAA | 0.9912 ± 0.0059
CTTAATTTTG | 0.973 ± 0.027
CTTACAAGC | 1.04 ± 0.026
CTTACGCAGC | 1.59 ± 0.016

Sequence | switch fluorescence ratio
CTTACTATTC | 0.9715 ± 0.0069
CTTAGAAAGC | 1.05 ± 0.022
CTTAGAATCG | 1 ± 0.025
CTTAGAATGA | 0.979 ± 0.025
CTTAGATTTG | 0.9655 ± 0.0076
CTTAGCATTG | 1.03 ± 0.023
CTTAGCCACT | 1.036 ± 0.0065
CTTAGCGGGA | 1.02 ± 0.025
CTTAGCGGGG | 0.9827 ± 0.0064
CTTAGCTTGC | 1.02 ± 0.054
CTTAGGACGC | 1.22 ± 0.0055
CTTAGGGATT | 0.987 ± 0.031
CTTAGGTGAC | 1.034 ± 0.004
CTTAGTCTTT | 1.018 ± 0.0027
CTTAGTTAGT | 0.993 ± 0.01
CTTAGTTTCG | 1.035 ± 0.0071
CTTATAGTTT | 1.01 ± 0.016
CTTATATCTT | 0.993 ± 0.025
CTTATCTTTT | 0.986 ± 0.0097
CTTATTAGCG | 1.03 ± 0.019
CTTATTGAGC | 1.01 ± 0.012
CTTATTTCGT | 1.001 ± 0.0018
CTTCACAGGG | 1.06 ± 0.04
CTTCACTACG | 1.12 ± 0.043
CTTCAGGAGC | 1.69 ± 0.11
CTTCAGTCTT | 1 ± 0.011

Sequence | switch fluorescence ratio
CTTCATGGGT | 0.962 ± 0.013
CTTCATGGTC | 0.96 ± 0.017
CTTCCTATTG | 1.08 ± 0.046
CTTCGGGTAC | 3.69 ± 0.79
CTTCGTGCGA | 1.14 ± 0.023
CTTCTCTATC | 1.01 ± 0.027
CTTCTTTTGG | 0.996 ± 0.032
CTTGAAACGT | 0.992 ± 0.076
CTTGAAGGGG | 0.999 ± 0.036
CTTGAATGCG | 0.999 ± 0.031
CTTGACATA | 1.03 ± 0.011
CTTGAGCAGG | 1.2 ± 0.038
CTTGAGGGGA | 0.983 ± 0.032
CTTGATAAAA | 1.01 ± 0.017
CTTGATATTG | 0.999 ± 0.018
CTTGATGCGA | 1.032 ± 0.0045
CTTGCACCC | 1.07 ± 0.024
CTTGCATTGA | 1.08 ± 0.071
CTTGCCGATT | 0.968 ± 0.029
CTTGCTGCTG | 0.972 ± 0.044
CTTGGACGGG | 0.9706 ± 0.0021
CTTGGCAAGG | 1.03 ± 0.04
CTTGGCGGGC | 1.01 ± 0.04
CTTGGCTGTT | 0.986 ± 0.018
CTTGGGGGGT | 0.97564 ± 0.00052
CTTGGGTAAG | 0.988 ± 0.033

Sequence | switch fluorescence ratio
CTTGGGTATA | 1.25 ± 0.29
CTTGGGTTGC | 0.9961 ± 0.0092
CTTGTAACCT | 1.8 ± 0.061
CTTGTAGCAG | 1.09 ± 0.021
CTTGTATGGG | 1.01 ± 0.029
CTTGTCCAGC | 1.04 ± 0.037
CTTGTCGTTC | 1.01 ± 0.026
CTTGTGAGTT | 0.979 ± 0.016
CTTGTGTGGT | 1.02 ± 0.014
CTTGTTAGGA | 1 ± 0.012
CTTGTTAGTA | 0.987 ± 0.027
CTTGTTGATT | 1.009 ± 0.0056
CTTGTTTGAC | 0.988 ± 0.044
CTTTAACGTG | 0.9718 ± 0.004
CTTTAAGCAA | 4.65 ± 0.36
CTTTAAGGCA | 0.981 ± 0.017
CTTTAAGGGG | 1.01 ± 0.03
CTTTAATTTT | 1.01 ± 0.055
CTTTACGGGC | 1.02 ± 0.038
CTTTATAGGA | 0.9944 ± 0.0056
CTTTATAGTT | 1.02 ± 0.034
CTTTATGCGA | 1.033 ± 0.0093
CTTTCAAAAA | 1.03 ± 0.015
